From article PMC3531269

How the values were obtained:
[1] = target: HIV-1 HXB2 Env (gp120/gp41) expressed on the surface of CHO-WT cells (HIV-1 HXB2) (UniProt P04578)
[2] = target: N-peptide N36 (aa 546-581 of HIV-1 HXB2 gp41 NHR) (HIV-1 HXB2) (UniProt P04578); assay: ELISA

| Substance | IC50 of HIV-1 replication, Bal (B, R5) [1] | IC50 of HIV-1 replication, IIIB (B, X4) [1] | IC50 of HIV-1 replication, primary isolate 92TH009 (E/A, R5) [1] | IC50 of HIV-1 replication, primary isolate 92US657 (B, R5) [1] | IC50 of HIV-1 replication, primary isolate 93 MW959 (C, R5) [1] | IC90 of HIV-1 replication, Bal (B, R5) [1] | IC90 of HIV-1 replication, IIIB (B, X4) [1] | IC90 of HIV-1 replication, primary isolate 92TH009 (E/A, R5) [1] | IC90 of HIV-1 replication, primary isolate 92US657 (B, R5) [1] | IC90 of HIV-1 replication, primary isolate 93 MW959 (C, R5) [1] | IC50 [2] |
| --- | --- | --- | --- | --- | --- | --- | --- | --- | --- | --- | --- |
| T1144 (C-peptide, next generation HIV fusion inhibitor) | 4.03 nM | 2.13 nM | 1.36 nM | 13.2 nM | 2.35 nM | 28.1 nM | 35.2 nM | 6.21 nM | 42.3 nM | 16.2 nM |  |
| 2DLT (bivalent recombinant protein: D1D2 domain of CD4 linked to T1144 by a 35-mer linker) (designed binder) | 10.8 nM | 5.64 nM | 17.5 nM | 17.2 nM | 18.9 nM | 44.4 nM | 28.8 nM | 71.9 nM | 51.9 nM | 48.9 nM | 500 nM |
